Measured values published in the nanobody polyreactivity screen of Harvey et al. (2022).

Test: yeast display, Sf9 membrane polyspecificity reagent, FACS + sequencing; frameworks hold sequencing errors
Summary of the method: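 Galactose-induced (36–48 hours) yeast carrying a synthetic nanobody display library were exposed to 10% biotinylated, detergent-solubilized Sf9 membrane reagent at 4 °C for 1 hour. FACS followed streptavidin microbead enrichment, using low and high (top ~1%) gates for expression (anti-HA) and reagent binding (streptavidin). Colony PCR, MiSeq 2 × 250 sequencing and CDR-length filtering followed. Labels for polyreactivity reflect the gate of origin.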

Sequence: QVQLVESGGGLVQAGGSLRLSCAASGSTFKVYAMGWYRQAPGKERELVAAISQSGGSTYYADSVKGRFTITRDNAKNTVYFQMKSLKPEDTAVYYCAVRTYVYHWSFSSLPYDYWGQGTQVTVSS
- polyreactivity (PSR sort gate): high polyreactivity

Sequence: QVQLVESGGGLVQAGGSLRLSCAASGSTFKVYAMGWYRQAPGKERELVAVISGGGRTNYADSVKGRFTISRDNAKNTVYLQMNSLNPEDTAVYYSAALGPYGSARRKYGYWGQGTQVTVSS
- polyreactivity (PSR sort gate): high polyreactivity

Sequence: QVQLVESGGGLVQAGGSLRLSCAASGSTFKWYAMGWYRQAPGKERELVAAISQSGSRTYYADSVKGRFTISRDNAKNTVYLQMNSLKPEDTAVYYCNARRYIYNYDYWGQGTQVTVSS
- polyreactivity (PSR sort gate): high polyreactivity

Sequence: QVQLVESGGGLVQAGGSLRLSCAASGSTFKYYAMGWSRQAPGKERELVAAISYRGGRTYYADSVKGRFTISRDNAKNTVYLQMNSLKPEDTAVYYCPAVKPYYIQYQGSAGYDYWGQGTQVTVSS
- polyreactivity (PSR sort gate): high polyreactivity

Sequence: QVQLVESGGGLVQAGGSLRLSCAASGSTFKYYAMGWYRQAPGKERELVAAITWRGGSTYYADSVKGRFTISRDNAKNTVYLQMNSLKPEDTAVYYCNRAYLYAYRSWWETYLRGDYWGQGTQVTVSS
- polyreactivity (PSR sort gate): high polyreactivity

Sequence: QVQLVESGGGLVQAGGSLRLSCAASGSTFKYYAMGWYRQAPGKERELVARISSGGRTYYADSVKGRFTISRDNAKNTVYLQMNSLKPEDTAVYYCNAQGYTTYRGDYWGQGTQVTVSS
- polyreactivity (PSR sort gate): high polyreactivity

Sequence: QVQLVESGGGLVQAGGSLRLSCAASGSTFKYYVMGWYRQAPGKEREFVAAITLRGGRTYYADSVKGRFTISRDNAKNTVYLQMNSLKPEDTAVYYCNAAYYLGWAHGTGRVEYDYWGQGTQVTVSS
- polyreactivity (PSR sort gate): high polyreactivity

Sequence: QVQLVESGGGLVQAGGSLRLSCAASGSTFLANAMGWYRQAPGKERELVATISSGGSTNYADSVKGRFTISRDNAKNTVYLQMNSLKPEDTAVYYCAAEYWYAWQEYGYWGQGTQVTVSS
- polyreactivity (PSR sort gate): low polyreactivity

Sequence: QVQLVESGGGLVQAGGSLRLSCAASGSTFLANAMGWYRQAPGKEWELVATISSGGSTNYADSVKGRFTISRDNAKNTVYLQMNSLKPEDTAVYYCAAEYWYAWQEYGYWGQGTQVTVSS
- polyreactivity (PSR sort gate): low polyreactivity

Sequence: QVQLVESGGGLVQAGGSLRLSCAASGSTFLDNAMGWFRQAPGKERELVAAITSGDSTKYADSVKGRFTISRDNEKNTVYLQMNSLKPEDTAVYYCAADVGRNKMDYWGQGTQVTVSS
- polyreactivity (PSR sort gate): low polyreactivity

Sequence: QVQLVESGGGLVQAGGSLRLSCAASGSTFLENAMGWYRQAPGKEREFVAAISKSGGSTSYADSVKGRFTISRDNAKNTVYLQMNSLKPEDTAVYYCATRRSRAYDYWGQGTQVTVSS
- polyreactivity (PSR sort gate): high polyreactivity

Sequence: QVQLVESGGGLVQAGGSLRLSCAASGSTFLGYDMGWYRHAPGKERELVATISKSGGSTHYADSVKGRFTISRDNAKNTVYLQMNSLKPEDTAVYYCAADYYQRYYKKSGEYDYWGQGTQVTVSS
- polyreactivity (PSR sort gate): low polyreactivity

Sequence: QVQLVESGGGLVQAGGSLRLSCAASGSTFLGYVMGWYRQAPGKEREFVAAITWSVGSTYYADSVKGRFTISRDNAKNTVYLQMNSLKPEDTAVYYCAVRWVYANIYPDMEYWGQGTKVTVSS
- polyreactivity (PSR sort gate): low polyreactivity

Sequence: QVQLVESGGGLVQAGGSLRLSCAASGSTFLHYAMGWYRQAPGKERELVAAISRRGGRTYYADSVKGRFTISRDNAKNTVYLQMNSLKPEDTAVYYCAVDGIRDGYWIFYYWGQGTQVTVSS
- polyreactivity (PSR sort gate): low polyreactivity

Sequence: QVQLVESGGGLVQAGGSLRLSCAASGSTFLLYAMGWYRPAPGKERELVATISWGGDGTYYADSVKGRFTISRDNAKNTVYLHLNSLKPEDSAVYYCAAYSYFGYYWDGQLPYRLPYDYWGQGTQVTLSS
- polyreactivity (PSR sort gate): low polyreactivity

Sequence: QVQLVESGGGLVQAGGSLRLSCAASGSTFLNYALGWYRQAPGKERELVASISYSAGSTYYADSVKGRFTISRDNAKNTVYLQMNSLKPEDTAVYYCAARLARAGYWRRNYYYWGQGTQVTVSS
- polyreactivity (PSR sort gate): high polyreactivity

Sequence: QVQLVESGGGLVQAGGSLRLSCAASGSTFLNYAMGWYRQAPGKERELVAAISGSTTRTYYADSVKGRFTISRDNAKNTVYLQMNSLKPEDTAVYYCARYSLYTGYRRYPLDYDYWGQGTQVTVSS
- polyreactivity (PSR sort gate): high polyreactivity

Sequence: QVQLVESGGGLVQAGGSLRLSCAASGSTFLNYAMGWYRQAPGKERELVAAITGSGGRTYYADSVKGRFTISRDNAKNTVYLQMNSLKPEDTAVYYCAASATYDPHDYWGQGTQVTVSS
- polyreactivity (PSR sort gate): high polyreactivity

Sequence: QVQLVESGGGLVQAGGSLRLSCAASGSTFLPNDMGWYRQAPGKERELVAAISWSDGSTYYADSVKGRFTISRDNAKNTVYLQMNSLKPEDTAVYYCNTVGFDYYYYEYDYWGQGTQVTVSS
- polyreactivity (PSR sort gate): low polyreactivity

Sequence: QVQLVESGGGLVQAGGSLRLSCAASGSTFLPYAMGWYRQAPGKERELVAAIRWSVGSTYYADSVKGRFTISRDNAKNTVYLQMNSLKPEDTAVYYCAVTYGRGYEYWGQGTQVTVSS
- polyreactivity (PSR sort gate): high polyreactivity

Sequence: QVQLVESGGGLVQAGGSLRLSCAASGSTFLRNAMGWYRQAPGKERQLVAAISRRGGSTYYADSVKGRFTISRDNAKNTVYLQMNSLKPEDTSVYYCAKDYRSPISGDYWGQGTQVTVSS
- polyreactivity (PSR sort gate): high polyreactivity

Sequence: QVQLVESGGGLVQAGGSLRLSCAASGSTFLRYAMGWYREAPGTERELVAAISVSGGSTYYADSVKGRFTISRDNAKNTVYLQMNSLKPEYTAVYYCIAVTKFHRRYNYWGQGTQVTVSS
- polyreactivity (PSR sort gate): high polyreactivity

Sequence: QVQLVESGGGLVQAGGSLRLSCAASGSTFLRYAMGWYRQAPGKERELVAAISSGTSTNYADSVKGRFTISRDNAKNTVYLQMNSLKPEDTAVYYCAAVYAWLFWYDSWGQGTQVTVSS
- polyreactivity (PSR sort gate): low polyreactivity

Sequence: QVQLVESGGGLVQAGGSLRLSCAASGSTFLRYAMGWYRQAPGKERELVATISRSDDGTYYADSVKGRFTISRDNAKNTVYLQMNSLKPEDTAVYYCAARSWYLYYYWGQGTQVTVSS
- polyreactivity (PSR sort gate): low polyreactivity

Sequence: QVQLVESGGGLVQAGGSLRLSCAASGSTFLRYAMGWYRQAPGKERELVATITSGGSTYADSVKGRFTISRDNAKNTVYLQMNSLKPEDTAVYYCAARANTKKPYYYWGQGTQVTVSS
- polyreactivity (PSR sort gate): high polyreactivity

Sequence: QVQLVESGGGLVQAGGSLRLSCAASGSTFLRYDMGWYRQAPGKDRELVAAINWSGGGTSYADSVKGRFTISRDNAKNTVYLQMNSLKPEDTEVYYCAAYFRYSYYWSEYWGQGTQVTVSS
- polyreactivity (PSR sort gate): high polyreactivity

Sequence: QVQLVESGGGLVQAGGSLRLSCAASGSTFLRYTMGWYRQAPGTERELVAAISPSAGSTYYADSVKGRFTISRDNAKNSVYLQMNSLTPEDTAVYYCAAKRGSVSRPDYGANDESWGQGTQVTVSS
- polyreactivity (PSR sort gate): high polyreactivity

Sequence: QVQLVESGGGLVQAGGSLRLSCAASGSTFLSNAMGWYRPAPGKERELVAGIDYNDGSTYYADSVKGRFTISRDNAKNTVYLQMNSLKPEDTAVYYCAARWVFRRYVIGMDYWGQGTQVTVSS
- polyreactivity (PSR sort gate): low polyreactivity

Sequence: QVQLVESGGGLVQAGGSLRLSCAASGSTFLSYAMGWYIQAPGKEREFVAAIPSIVGSTYYADSVKGRFTISRDNAKNTVYLQMNSLKPEDTAVYYCATDSYPGLNPDFDYWGQGTQVTVSS
- polyreactivity (PSR sort gate): low polyreactivity

Sequence: QVQLVESGGGLVQAGGSLRLSCAASGSTFLSYAMGWYRQAPGKERELVARITSSGGNTYYADSVKGRFTISRDNAKNTVYLQMNSLKPEDTAVYYCAVSLEDQQYIFDYWGQGTQVTVSS
- polyreactivity (PSR sort gate): low polyreactivity

Sequence: QVQLVESGGGLVQAGGSLRLSCAASGSTFLTNVMGWYRQAPGKEREFVAAITANGGRTYYADSVKGRFTISRDNAKKTVYLKMNSQKPEDTAVYYAVETAWSYNSIYWFDYWGQGTQVTVSS
- polyreactivity (PSR sort gate): high polyreactivity
